Laboratory results reported in the Human Domainome abundance scans (Beltran et al. 2025).
± gives the uncertainty stated by the source.

B1: Zinc finger homeobox protein 3, residues 2147 to 2202; numbered along this chain, Q15911 (parent)
chain: RPRTRITDDQLRVLRQYFDINNSPSEEQIKEMADKSGLPQKVIKHWFRNTLFKERQ

Variants of: B1
Assay: abundance fitness (aPCA) (normalised: wild type 0, dead -1); higher = more abundant; growth selection in yeast, the domain comes from the species named
Conditions: Homo sapiens

Row | Variant | abundance fitness
1 | RPRTRITDDQLRVLRQYFDQNNSPSEEQIKEMADKSGLPQKVIKHWFRNTLFKERQ | -0.019 ± 0.096
2 | RPRTRITDDQLRVLRQYFDCNNSPSEEQIKEMADKSGLPQKVIKHWFRNTLFKERQ | 0.1 ± 0.085
3 | RPRTRITDDQLRVLRQYFDINNSPSEEQIKEMADKSGLPQKVIKHWFRNTLFNERQ | -0.041 ± 0.14
4 | RPRTRITDDQLRVLRQYFDINNSPSEEQIKEMADKSGLPQKVIKHIFRNTLFKERQ | -0.118 ± 0.2
5 | RPRTRITDDQLRVLRQYFDINNSPSEEQIKEMADKSGLPQKVIKHQFRNTLFKERQ | -0.576 ± 0.14
6 | RPRTRITDDQLRVLRQYFDINNSPSEEQIKEMADKSGLPQKVIKHFFRNTLFKERQ | -0.163 ± 0.18
7 | RPRTRITDDQLRVLRQYFDINNSPSEEQIKEMADKSGLPQKVIKHTFRNTLFKERQ | -0.555 ± 0.16
8 | RPRTRITDDQLRVNRQYFDINNSPSEEQIKEMADKSGLPQKVIKHWFRNTLFKERQ | -1.22 ± 0.21
9 | RPRTRITDDQLRVLRQYFDINNSPSEEQIKERADKSGLPQKVIKHWFRNTLFKERQ | -1.18 ± 0.089
10 | RPRTRITDDQLRVLRQYFDINNSPSEEQIKEEADKSGLPQKVIKHWFRNTLFKERQ | -0.987 ± 0.13
11 | RPRTRITDDQLRVLRQDFDINNSPSEEQIKEMADKSGLPQKVIKHWFRNTLFKERQ | -0.184 ± 0.1
12 | RPRTRITDDQLRVLRQHFDINNSPSEEQIKEMADKSGLPQKVIKHWFRNTLFKERQ | -0.127 ± 0.12
13 | RPRTRITDDQLRVLRQYFDINNSPSEEQIKEMADKSGLPQKVIKHWFRNLLFKERQ | -0.17 ± 0.11
14 | RPRTRITDDQLRVLRQYFDINNSPSREQIKEMADKSGLPQKVIKHWFRNTLFKERQ | -0.093 ± 0.064
15 | RPRTRITDDQLRVLRQYFDINNSPSCEQIKEMADKSGLPQKVIKHWFRNTLFKERQ | 0.024 ± 0.091
16 | RPRTRITDRQLRVLRQYFDINNSPSEEQIKEMADKSGLPQKVIKHWFRNTLFKERQ | -0.143 ± 0.063
17 | RPRTRITDDQLRVLRQYFDINNSPSEEQIKEMMDKSGLPQKVIKHWFRNTLFKERQ | -0.083 ± 0.25
18 | RPRTRITDDQLRVLRQYFDINNSPSEEQIKEMDDKSGLPQKVIKHWFRNTLFKERQ | -0.879 ± 0.33
19 | RPRTRITDDQLRVLRQYFDINNSPSEEQIKEMADKSGLPQKVIKHWFRNTLFKEMQ | -0.101 ± 0.12
20 | RPRTRITDDQLRVLRQYFDINNSPSEEQIKEMADKSGLPQKVIKHWFRNTLFKEGQ | -0.054 ± 0.075
21 | RPRTRITDDWLRVLRQYFDINNSPSEEQIKEMADKSGLPQKVIKHWFRNTLFKERQ | -0.718 ± 0.088
22 | RPRTRITDDQLRVLRQYFDINNSPSEEQIKHMADKSGLPQKVIKHWFRNTLFKERQ | -0.168 ± 0.16
23 | RPRTRITDDQLRVLRQYFDINNSPSEEQIKEMADKSGLPLKVIKHWFRNTLFKERQ | 0.072 ± 0.083
24 | RPRTRITDDQLRVLRQYFDINNSPSEEQIKEMADKSGLPCKVIKHWFRNTLFKERQ | -0.118 ± 0.11

Row | Variant | abundance fitness
25 | RPRTRITDDQLRELRQYFDINNSPSEEQIKEMADKSGLPQKVIKHWFRNTLFKERQ | -0.01 ± 0.1
26 | RPRTRITDDQLRALRQYFDINNSPSEEQIKEMADKSGLPQKVIKHWFRNTLFKERQ | -0.22 ± 0.079
27 | RPRTRIHDDQLRVLRQYFDINNSPSEEQIKEMADKSGLPQKVIKHWFRNTLFKERQ | -0.336 ± 0.13
28 | RPRTRIQDDQLRVLRQYFDINNSPSEEQIKEMADKSGLPQKVIKHWFRNTLFKERQ | -0.253 ± 0.088
29 | RPRTRIGDDQLRVLRQYFDINNSPSEEQIKEMADKSGLPQKVIKHWFRNTLFKERQ | -0.2 ± 0.067
30 | RPRTRITDDQLVVLRQYFDINNSPSEEQIKEMADKSGLPQKVIKHWFRNTLFKERQ | 0.04 ± 0.065
31 | RPRTRITDDQARVLRQYFDINNSPSEEQIKEMADKSGLPQKVIKHWFRNTLFKERQ | -0.019 ± 0.066
32 | RPRTRITDDQLRVLRQYFDINNSPSECQIKEMADKSGLPQKVIKHWFRNTLFKERQ | -0.019 ± 0.094
33 | RPRTRITDDQLRVLRQYFDINNSPSEQQIKEMADKSGLPQKVIKHWFRNTLFKERQ | 0.034 ± 0.092
34 | RPRTRITDDQLRVLRQYFDINNSPSEHQIKEMADKSGLPQKVIKHWFRNTLFKERQ | -0.147 ± 0.13
35 | RPRTRITDDQLRVLRQYFDINNSPSETQIKEMADKSGLPQKVIKHWFRNTLFKERQ | -0.011 ± 0.089
36 | RPRTRITDDQLRVLRQYFDINNSPSERQIKEMADKSGLPQKVIKHWFRNTLFKERQ | -0.046 ± 0.062
37 | RPRTRITDDQLRVLRQYFDINNSPSEWQIKEMADKSGLPQKVIKHWFRNTLFKERQ | -0.341 ± 0.079
38 | RPRTRITDDQLRVLRQYFDINNSFSEEQIKEMADKSGLPQKVIKHWFRNTLFKERQ | -0.746 ± 0.15
39 | RPRTRITDDQLRVLRQYFDINNSPSEEQIKEMADKSGLPQKVIKHWFRNTLFKRRQ | -0.101 ± 0.079
40 | RPRTRITDDQLRVLRQYFDINNSPSEEQIKEMADKSGLPQKVIKHWFRNTLFKGRQ | -0.291 ± 0.078
41 | RPRTRITDDQLRVLRQYFDINNSPSEEQIKEMADKSGLPQKVIKHWFRNTLFKPRQ | -0.367 ± 0.17
42 | RPRTRITDDQLRVLRQYFDINNSPSEEQIKEMADKSGLPQKVIKHWFRNTLHKERQ | -0.189 ± 0.22
43 | RPRTRITDDQLRVLRQYFDINNSPSEEQIKEMADKSGLPQKVIKHWFRNTLMKERQ | 0.101 ± 0.12
44 | CPRTRITDDQLRVLRQYFDINNSPSEEQIKEMADKSGLPQKVIKHWFRNTLFKERQ | -0.134 ± 0.21
45 | RPSTRITDDQLRVLRQYFDINNSPSEEQIKEMADKSGLPQKVIKHWFRNTLFKERQ | 0.034 ± 0.087
46 | RPQTRITDDQLRVLRQYFDINNSPSEEQIKEMADKSGLPQKVIKHWFRNTLFKERQ | -0.062 ± 0.14
47 | RPVTRITDDQLRVLRQYFDINNSPSEEQIKEMADKSGLPQKVIKHWFRNTLFKERQ | 0.006 ± 0.075
